Measurements reported in publication PMC12690290.

Tests used:
[1] = molecular target: Low-density lipoprotein receptor 1 (low-density lipoprotein-related protein 1) (human (endogenous in HepG2 and primary human hepatocytes)) (UniProt Q07954); experiment: affinity purification with mass spectrometry; as a6, RAP (500 nM) added as competitor to human hepatocyte extract and heme–HPX Affi-Gel 15; amount of receptor isolated
[2] = molecular target: LRP1 (Homo sapiens) (UniProt Q07954); experiment: surface plasmon resonance; settings: cited from earlier work

Substance	percent decrease of LRP1 isolated on proto-heme–human HPX Affi-Gel 15 with 500 nM RAP [1] [%]	Kd [2] [nM]
RAP (receptor associated protein) added at 500 nM (from UniProt P30533 35-357) (natural protein)	50	
hemopexin (from UniProt P02790)		4
